Measurements from article PMC2586972 (Structure (London, England : 1993), 2008).

T1: Gα13 (Mus musculus, UniProt P27601)
T1 chain: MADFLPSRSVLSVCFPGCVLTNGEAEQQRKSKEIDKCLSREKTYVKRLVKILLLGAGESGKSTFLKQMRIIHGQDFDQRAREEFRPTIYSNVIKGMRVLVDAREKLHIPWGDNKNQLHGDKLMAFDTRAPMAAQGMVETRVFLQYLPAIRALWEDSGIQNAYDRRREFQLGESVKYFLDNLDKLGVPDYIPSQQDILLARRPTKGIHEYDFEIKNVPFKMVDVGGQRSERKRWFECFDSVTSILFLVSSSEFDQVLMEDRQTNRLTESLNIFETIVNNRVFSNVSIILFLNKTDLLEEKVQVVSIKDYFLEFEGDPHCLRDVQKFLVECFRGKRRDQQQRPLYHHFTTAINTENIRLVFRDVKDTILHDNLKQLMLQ

T2: N-terminally truncated Gα13(Q226L), GDP-bound (mouse, UniProt P27601 41-377, Q226L)
T2 sequence (looked up): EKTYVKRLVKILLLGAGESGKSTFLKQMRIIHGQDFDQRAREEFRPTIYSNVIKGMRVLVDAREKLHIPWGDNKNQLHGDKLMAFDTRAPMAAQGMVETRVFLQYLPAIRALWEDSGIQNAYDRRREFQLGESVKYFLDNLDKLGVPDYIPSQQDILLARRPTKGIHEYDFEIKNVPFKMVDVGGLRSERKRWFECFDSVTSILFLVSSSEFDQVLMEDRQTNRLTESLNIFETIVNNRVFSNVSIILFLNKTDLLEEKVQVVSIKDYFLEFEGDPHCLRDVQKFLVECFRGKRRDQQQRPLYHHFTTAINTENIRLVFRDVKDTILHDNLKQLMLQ


Key:
Gα13 = target: T1, Gα13; experiment: ITC
[1] = target: T2, N-terminally truncated Gα13(Q226L), …; experiment: crystal structure

| Kd (Gα13) [nM] | binding result [1] | Binder |
| --- | --- | --- |
| ~500 |  | PDZRhoGEF rgRGS (protein, GDP·AlF-bound Gα13) ESDIIFQDLEKLKSRPAHLGVFLRYIFSQADPSPLLFYLCAEVYQQASPKDSRSLGKDIWNIFLEKNAPLRVKIPEMLQAEIDSRLRNSEDARGVLCEAQEAAMPEIQEQIHDYRTKRTLGLGSLYGENDLLDLDGDPLRERQVAEKQLAALGDILSKYEEDRSAPMDFALNTYMSHAGIR |
| ~300 |  | PDZRhoGEF rgRGS (protein, GTPγS-bound Gα13) ESDIIFQDLEKLKSRPAHLGVFLRYIFSQADPSPLLFYLCAEVYQQASPKDSRSLGKDIWNIFLEKNAPLRVKIPEMLQAEIDSRLRNSEDARGVLCEAQEAAMPEIQEQIHDYRTKRTLGLGSLYGENDLLDLDGDPLRERQVAEKQLAALGDILSKYEEDRSAPMDFALNTYMSHAGIR |
|  | binds | rgRGS domain of PDZRhoGEF/GTRAP48 (residues 307–508) (domain or fragment, rat, UniProt Q9ES67 307-508, looked up) LIIGPEEDYDPGYFNNESDIIFQDLEKLKSHPAYLVVFLRYILSQADPGPLLFYLCSEVYQQTNPKDSRSLGKDIWNIFLEKNAPLRVKIPEMLQAEIDLRLRNNEDPRNVLCEAQEAVMLEIQEQINDYRSKRTLGLGSLYGENDLLGLDGDPLRERQMAEKQLAALGDILSKYEEDRSAPMDFAVNTFMSHAGIRLRESR |
